Results: PMC8509808, “Characterization of the Chimeric PriB-SSBc Protein” (International Journal of Molecular Sciences, 2021)

B1: dT55 (ssDNA)
DNA: TTTTTTTTTTTTTTTTTTTTTTTTTTTTTTTTTTTTTTTTTTTTTTTTTTTTTTT
B2: Klebsiella pneumoniae SSB (natural protein, UniProt A6TGW7 1-174, looked up)
chain: MASRGVNKVILVGNLGQDPEVRYMPSGGAVANFTLATSESWRDKQTGEMKEQTEWHRVVLFGKLAEVAGEYLRKGSQVYIEGQLRTRKWTDQSGQDKYTTEVVVNVGGTMQMLGGRQGGGAPAGGGQQQGGWGQPQQPQGGNQFSGGAQSRPQQQAPAAPSNEPPMDFDDDIPF
notes: amino acids 120-174 not observed in the crystal structure; the gene spans 525 nt; also called KpSSB; source: E. coli, purified (ammonia sulfate precipitation, Q and Heparin columns)
B3: dT60 (ssDNA)
DNA: TTTTTTTTTTTTTTTTTTTTTTTTTTTTTTTTTTTTTTTTTTTTTTTTTTTTTTTTTTTT

Tests used:
[1] = molecular target: chimeric PriB-SSBc protein (KpPriB1-98 fused KpSSB112-174) (Klebsiella pneumoniae) (UniProt A6THB2); assay: SEC; purified PriB-SSBc 4 mg/mL in 20 mM HEPES, 100 mM NaCl, pH 7.0 on a Superdex 200 prep grade column, calibrated with standard proteins
KpSSB [2] = molecular target: T1, KpSSB (Klebsiella pneumoniae, UniProt A6TGW7 1-174); assay: EMSA; monomer conc.; 1 complex; EMSA: 20 mM Tris-HCl pH 8.0, 100 mM NaCl, 25 C, 30 min, 1.7 nM 32P-ssDNA; 8% native PAGE in TBE at 4 C; settings: protein: recombinant; tags: none (tag-free); chain copies: 4; label: 5'-32P
KpPriB [3] = molecular target: T2, KpPriB (Klebsiella pneumoniae, UniProt A6THB2 1-104); assay: as above; settings: protein: recombinant; tags: none (tag-free); chain copies: 2; label: 5'-32P
KpSSB [4] = molecular target: T1, KpSSB; assay: EMSA; monomer conc.; 2 complexes; EMSA: 20 mM Tris-HCl pH 8.0, 100 mM NaCl, 25 C, 30 min, 1.7 nM 32P-ssDNA; 8% native PAGE in TBE at 4 C; settings: protein: recombinant; tags: none (tag-free); chain copies: 4; label: 5'-32P
[5] = molecular target: the molecule itself; assay: crystal structure; KpSSB without DNA, 14 mg/mL, hanging drop vapor diffusion, 20% PEG 3350, 0.2 M magnesium acetate tetrahydrate, pH 6.5; four monomers per asymmetric unit
KpSSB [6] = molecular target: T1, KpSSB; assay: EMSA; ND; up to 5 uM protein; EMSA: 20 mM Tris-HCl pH 8.0, 100 mM NaCl, 25 C, 30 min, 1.7 nM 32P-ssDNA; 8% native PAGE in TBE at 4 C; settings: protein: recombinant; tags: none (tag-free); chain copies: 4; label: 5'-32P
KpPriB [7] = molecular target: T2, KpPriB; assay: EMSA; ND; up to 50 uM protein; EMSA: 20 mM Tris-HCl pH 8.0, 100 mM NaCl, 25 C, 30 min, 1.7 nM 32P-ssDNA; 8% native PAGE in TBE at 4 C; settings: protein: recombinant; tags: none (tag-free); chain copies: 2; label: 5'-32P
KpSSB [8] = molecular target: T1, KpSSB; assay: EMSA; ND; no stable complex up to 5 uM protein; EMSA: 20 mM Tris-HCl pH 8.0, 100 mM NaCl, 25 C, 30 min, 1.7 nM 32P-ssDNA; 8% native PAGE in TBE at 4 C; settings: protein: recombinant; tags: none (tag-free); chain copies: 4; label: 5'-32P

Row | Molecule | apparent K (half saturation) (KpSSB [2]) | apparent K (half saturation) (KpPriB [3]) | other results
1 | chimeric PriB-SSBc protein (KpPriB1-98 fused KpSSB112-174) (from UniProt A6THB2 1-98; A6TGW7 112-174) |  |  | stoichiometry N [1]: 2
2 | TTTTTTTTTTTTTTTTTTTTTTTTTTTTTTTTTTTTTTTT (ssDNA) [dT40] | 230 ± 10 nM | 9.1 ± 0.8 µM | 
3 | B1 |  | 4.9 ± 0.5 µM | apparent K (half saturation) (KpSSB [4]): 130 ± 10 nM
4 | TTTTTTTTTTTTTTTTTTTTTTTTTTTTTT (ssDNA) [dT30] | 550 ± 40 nM | 9.2 ± 0.8 µM | 
5 | B2 |  |  | stoichiometry N [5]: 4
6 | TTTTTTTTTTTTTTT (ssDNA) [dT15] |  |  | binding result (KpSSB [6]): no binding; binding result (KpPriB [7]): no binding
7 | TTTTTTTTTTTTTTTTTTTTTTTTT (ssDNA) [dT25] | 580 ± 50 nM | 14.1 ± 1 µM | 
8 | B3 |  | 4.8 ± 0.5 µM | apparent K (half saturation) (KpSSB [4]): 50 ± 10 nM
9 | TTTTTTTTTTTTTTTTTTTT (ssDNA) [dT20] |  |  | binding result (KpSSB [8]): no binding
10 | TTTTTTTTTTTTTTTTTTTTTTTTTTTTTTTTTTTTTTTTTTTTTTTTTT (ssDNA) [dT50] | 170 ± 20 nM | 5.6 ± 0.3 µM | 
